Reference: patent US20260209387A1, “SINGLE-DOMAIN ANTIBODY FOR INHIBITION OF NEUTROPHIL ELASTASE ACTIVITY” (UNIVERSITE DE LIEGE, priority 2023, published 2026)

Legend:
[1] = molecular target: T1, human cathepsin G (hCG) (Homo sapiens, UniProt P08311); assay: BLI binding to other serine proteases: hCG; settings: 50 nM protease
T1 construct: purchased Calbiochem
T1 sequence (P08311 21-244): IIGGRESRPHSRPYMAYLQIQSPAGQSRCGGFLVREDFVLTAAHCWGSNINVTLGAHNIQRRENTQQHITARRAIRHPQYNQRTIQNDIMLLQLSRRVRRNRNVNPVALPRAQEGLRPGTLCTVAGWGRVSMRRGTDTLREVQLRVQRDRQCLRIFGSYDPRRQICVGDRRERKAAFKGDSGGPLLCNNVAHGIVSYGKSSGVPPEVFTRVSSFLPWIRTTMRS
Description: The specificity of NbE201 for hNE was also investigated by BLI. Biotinylated NbE201 (10 μg/mL) was immobilized on streptavidin biosensors (SA, Sartorius) following provider's indications. The biosensors were then immersed in a 50 nM solution of a serine protease. The proteases tested were human cathepsin G (hCG), human proteinase 3 (hPR3), mouse pancreatic elastase (mPE), mouse neutrophil elastase (mNE) and porcine pancreatic elastase (pPE). hNE was used a positive control. The association and dissociation were measured for 70 s and 320 s respectively, in kinetic buffer (KB, Sartorius). The experiments were carried out at 30° C. in 384-wells black-bottom microplates in polypropylene (Greiner Bio-One, Belgium) and with orbital agitation (1000 rpm).

[2] = molecular target: T2, hNE (Homo sapiens, UniProt P08246); assay: hNE inhibition, hydrolysis of chromogenic substrate N-Succinyl-Ala-Ala-Ala-paraNitroAnilide; type: biochemical; settings: hNE vs mNE
T2 construct: purchased Elastin Products Company (EPC)
T2 sequence (P08246 30-247): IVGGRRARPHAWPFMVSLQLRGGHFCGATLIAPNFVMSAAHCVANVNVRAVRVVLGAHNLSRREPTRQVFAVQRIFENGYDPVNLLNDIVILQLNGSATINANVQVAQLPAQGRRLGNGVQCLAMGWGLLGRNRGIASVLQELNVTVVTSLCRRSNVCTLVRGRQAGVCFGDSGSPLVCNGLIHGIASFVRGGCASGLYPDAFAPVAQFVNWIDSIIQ
Description: Inhibition of the hydrolysis of a chromogenic substrate. […] Briefly, hNE (Elastin products company, EPC, United States) was resuspended at 1 mg·mL^−1 in 50 mM sodium acetate buffer pH 5 containing 100 mM NaCl and stored at 4° C. The substrate Succinyl-Ala-Ala-Ala-paraNitroAnilide was dissolved at 1 mM in 0.1 M Tris pH 7.5 with NaCl 0.5 M and NaN3 0.01% (% w/v) and stored at 4° C. 230 μl of substrate (1 mM) were mixed with 10 μl of Bovine Serum Albumin 9 μM (BSA, Sigma-Aldrich, Germany) and incubated 20 min at 25° C. in a clear flat bottom 96-well plate (Greiner Bio-One, Belgium). […] The absorbance at 410 nm was measured every min for 60 minutes in a SpectraMax M2e Microplates Reader (Molecular Devices, California, USA). The initial velocity determined in the presence of the ISVD at different Nb: hNE ratios was compared to that measured in the absence of the ISVD, to determine the residual activity. […]
The absorbance at 410 nm was measured every min for 60 minutes. The initial velocity determined in the presence of the inhibitor at different inhibitor: hNE ratios was compared to that measured in the absence of the inhibitor, to determine the residual activity. […] The hNE activity was monitored at 410 nm for 10 minutes using the spectrophotometer Specord 50 Plus (Analytik Jena) and data were collected with the WinAspectPlus software. […]

[3] = molecular target: T2, hNE; assay: Affinity of NbE201 for hNE by BLI; type: binding
Description: The affinity of NbE201 for hNE and mNE was measured by BLI with the Octet HTX machine using various settings. […] For hNE, the biotinylated NbE201 (0.5 μg·mL^−1) was immobilized on streptavidin biosensors (SA, Sartorius) following the provider's indications. Then, the biosensors were immersed in a solution of hNE at different concentrations (25-6.25-3.125-1.5163-0.753 nM). Association and dissociation kinetics were measured for 180 s and 300 s respectively, in 10×KB buffer. All the experiments were carried out at 30° C. in 96-wells or 384-wells black-bottom microplates in polypropylene (Greiner Bio-One, Belgium) and with orbital agitation (1500 rpm). The sensorgrams obtained were fitted globally to a 1:1 model to derive the rate constants for association (kon) and dissociation (koff) and the equilibrium dissociation constant (KD=koff/kon). […] were carried out. The error on KD was calculated using the following equation: […]

[4] = molecular target: T3, mNE (Mus musculus, UniProt Q3UP87); assay: Affinity of NbE201 for mNE by BLI; type: binding
T3 sequence (Q3UP87 27-265): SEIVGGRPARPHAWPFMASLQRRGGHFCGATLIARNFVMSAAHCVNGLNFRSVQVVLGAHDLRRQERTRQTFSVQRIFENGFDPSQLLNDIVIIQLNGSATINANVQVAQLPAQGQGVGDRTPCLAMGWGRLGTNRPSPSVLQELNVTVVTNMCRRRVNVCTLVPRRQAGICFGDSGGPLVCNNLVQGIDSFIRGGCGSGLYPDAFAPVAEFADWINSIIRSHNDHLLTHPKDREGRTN
Description: For mNE, NbE201_Cter Biot was immobilized on SA biosensors (Sartorius) via the C-terminal biotin following the provider's indications. Then, the biosensors were immersed in a solution of mNE at different concentrations (100-50-25-12.5-6.25-3.125 nM). Association and dissociation kinetics were measured for 300 s and 600 s respectively. All the experiments (for both hNE and mNE) were carried out at 30° C. in 384-wells black-bottom microplates in polypropylene (Greiner Bio-One, Belgium) and with orbital agitation (1000 rpm). The obtained sensorgrams were fitted to a 1:1 model by using the Data Analysis Octet Software Version 10.0 (Sartorius) to derive the rate constants for association (kon) and dissociation (koff) and the equilibrium dissociation constant (KD-koff/kon).

[5] = Heat-induced unfolding by far UV-CD at 206 nm; type: physicochemical; settings: far UV-CD 206 nm; average of three batches; pH 7
Description: 1.12.1. Preparation of the samples and measurements. Samples of NbE201 in 0.05 M NaP buffer pH 7 were prepared at a protein concentration of 0.2 mg mL-1. All the experiments were carried out in 1 mm quartz cell and a JASCO J-810 CD spectrophotometer equipped with a Peltier cell-holder. Mineral oil was added on the top of the sample to avoid sample evaporation. The CD spectrum of the native and denatured states of the protein were recorded from 190 nm to 260 nm at 25° C. and at 97° C. 61 data points were recorded with a 1 nm data interval, a data pitch of 0.1 nm, 2 s integration time, a bandwidth of 1 nm and a scanning speed of 50 nm/min. Heat-induced unfolding was monitored by far UV-CD at 206 nm. […] Data were acquired with a reading frequency of 0.05 s^−1 using a 4 s integration time and a 1 nm bandwidth. […]
1.12.2. […] The transition curves obtained were analyzed based on a two-state (N ? U) model and Equation 1 where x is the temperature during the analysis and a=−(ΔHm (1−x/Tm))/RT (doi: 10.1016/j.jmb.2008.11.046), and yobs is the CD signal at 206 nm at a given temperature (x), and YN and YU are the values of these signals for the native and denatured states, respectively at 273K. p and q are the slopes of the pre- and post-transition baselines, respectively, R is the gas constant, and T is the absolute temperature. […]

binding to hCG by BLI [1]: does not bind to the other proteases | inhibitory activity to hNE relative to mNE [2]: about 10 times | affinity for hNE relative to mNE ([3]; hNE vs mNE): about 10 times | koff ([3]; hNE, BLI): 3.2 ± 0.2 · 10^−3 s^−1 | kon ([3]; hNE, BLI): 2.6 ± 0.9 · 10^6 M^−1 s^−1 | koff [4]: 0.019 s⁻¹ | kon [4]: 390000 M⁻¹ s⁻¹
B1: NbE201: anti-hNE ISVD (VHH/nanobody) from immunized lama, amino acid sequence SEQ ID NO: 4 (protein)
VHH: QVQLQESGGGLVQAGGSLRLSCVVPGRTISLYRMGWFRQAPGKEREFVAGINWSGDMTDYVDSVKGRFTISRDNAKNTVYLEMNSLKPEDTAIYYCTADPKLLPLADSSYGYWGQGTQVTVSS
apparent temperature of unfolding (Tm^app) [5]: 70.7±1.5 °C
